In the supplement of paper PMC12042874:
± gives the uncertainty stated by the source.

Assay: amyloid nucleation score (Sup35N fusion, yeast selection) (log enrichment); library NNK3; higher = more nucleation; inactive = no reads after selection
Summary of the method: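 Psi-negative yeast expressed Sup35N fused to peptides of 20 random codons. They were induced 24 hours with 100 μM copper sulfate, grown 7 days at 30°C without adenine and uracil, and their plasmid inserts from input and output were Illumina-sequenced. The nucleation score is the DiMSum log enrichment of output over input reads, centred on the mode score of non-aggregating sequences. Sequences with under 100 input reads were excluded.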

Substance | amyloid nucleation score
SCTLQNFRGLKNSFYGYYAT | inactive
SCTYVSFVSSVRVTA | inactive
SCVMSWIFWNFVWCYSVRCV | inactive
SCVWFSL | inactive
SCYSLSSESSCSVGMCSTLG | inactive
SDAVSIWGQKSNISSICNDS | inactive
SDFFTLSS | inactive
SDGDVMFLVKIEAGAFSGGM | inactive
SDIYWNGGLMYWICSMSVFI | 2.84 ± 0.078
SDNGEIMILYRLRAVGDFE | inactive
SDPVPVMDIALYLVNPQLPS | inactive
SDRFHVAHNNFLMRGKGFRT | inactive
SDYGSFLEFH | -0.27 ± 0.79
SEFGPIEATSAHMFESPFKG | inactive
SEHFRN | inactive
SELFSEMREESKGRFNIWEV | inactive
SEQFSPCLVGQLRMDYSWI | inactive
SFAKHHDMK | inactive
SFCRRNISKVFYNFNNCATA | inactive
SFCWASKSVHRSRG | inactive
SFDNSWVVGAIELNDFDSWH | inactive
SFERGMSENLFIVGPGEFVG | inactive
SFEYHNWNDM | 0.361 ± 0.18

Substance | amyloid nucleation score
SFFTKADAGMPDLRSFMESC | inactive
SFGFALLGVVMRITAVRYPY | inactive
SFGTLQKVK | inactive
SFHSPYL | inactive
SFLGCFHGDY | inactive
SFLIGVV | inactive
SFLLFYVLRYP | inactive
SFLSWMVFANFKRVHPGWVP | inactive
SFLVSSINNVQGFFSVNGYV | 0.085 ± 0.26
SFLWKIMISCYMMIVFCCVS | inactive
SFNSRIIKRDDCFMDLIFWT | 1.07 ± 0.12
SFQAWVYFVSRLFLECFSSR | inactive
SFQSLTM | inactive
SFRSSSYEDNCLLVVDNVRT | inactive
SFSCYCTLLGLSVHYVNPTV | 1.82 ± 0.1
SFSLNRRWFNIGS | inactive
SFSMIRE | inactive
SFSMKKGQHQLIS | inactive
SFWIV | inactive
SFYGSIQGQNLLTLLNMKTR | inactive
SGASYVQS | inactive
SGCCLDSLYLTIRLDCLRWR | inactive
SGCYNYFCGFLLKYSMYVSL | inactive

Substance | amyloid nucleation score
SGFVSWN | inactive
SGGKWFIFRCT | inactive
SGGTEKRSKRAGLLLFRTEE | inactive
SGGVFCYQGSPGVVY | inactive
SGLDRWDAEVVSILWVKLTV | 1.44 ± 0.094
SGMLKLSWVVW | 0.667 ± 0.22
SGNDNFYVDCNWLNIIVNET | 2.79 ± 0.078
SGRCRSGRQAIRCCILLNVL | inactive
SGSDILISYLLFCYNACLTF | inactive
SGSKR | inactive
SGSRLGHCSSLTMKSSLSVD | 1.06 ± 0.17
SGVMNWKT | inactive
SGWIYMERIAS | inactive
SGYCYGFVMNDGHSSVRGDE | -0.215 ± 0.74
SHIDAIAQGNTVSSCGYV | inactive
SHKNGFFSQETR | inactive
SHKPLDRYLIEWLGLQELLT | inactive
SHLPCLFCYV | inactive
SHLSYYTFKWSSEATRAVPM | 1.82 ± 0.11
SHNVSTWRMICSWLVRPFIR | inactive
SHSMM | -0.218 ± 0.66
SHVSQMWSGYAGNKEEPTAW | 0.928 ± 0.19
SHWYIYSYSVDPCAGHAAVW | inactive

Substance | amyloid nucleation score
SICCGDSVVFTVSLPVAGSF | inactive
SIDHVLWYNIGRVGSCWSLR | -0.188 ± 0.27
SIGCSSGFGRCLDLG | inactive
SIGELPT | inactive
SIIDKCATTLTDVSGNQLGV | inactive
SIIDKE | -0.605 ± 0.98
SIKSLTIDSCLTS | 0.809 ± 0.2
SILLDMSDQFPALGFSLFII | inactive
SIMFGNLSMAKVKYMNFL | 0.862 ± 0.12
SINRTKQCLEVNFHLDDCKA | inactive
SISLITFCRMCDAWLWRFGV | inactive
SITSAPSLYMSGFTKVCSGE | inactive
SIYKE | inactive
SKAMLTVA | inactive
SKEAVLRVNPVVTFFSGSTR | inactive
SKFIRRT | inactive
SKHSVAGQTKC | inactive
SKKYFVHFILVNNFGVGY | inactive
SKMLIWSYLHGGNRCDLSDW | inactive
SKSITEADNPRNILNASGVE | inactive
SKVIAPWYEEMRWWRSTGAV | inactive
SKVQVIFLSSFFGTIQLWVL | inactive
SKVRTVGRLEVSVRIVKTGL | 0.085 ± 0.32

Substance | amyloid nucleation score
SLATSYVNFILCRLLKFDHT | inactive
SLCDMREWSALVFITHMSMV | inactive
SLCFIWTCMSLVVHTALSVH | inactive
SLCMVTLDKAIRLYYNPMYF | 2.18 ± 0.08
SLDCCNGVDRFKVSNILHYP | inactive
SLDLNCQIMLYKSMRCDEE | 1.61 ± 0.064
SLFFLSMFVHLMDEMWDWES | inactive
SLFIYGHYEHKHSGSLKFFA | inactive
SLFYHTGRS | 0.459 ± 0.15
SLGAMYVRCDKSWR | inactive
SLGFCKVGALLRWFCSQCQG | 0.561 ± 0.37
SLGKPSHREFYDFVVAAKTT | inactive
SLGSCTMFSFSIFWISVQSV | 1.34 ± 0.084
SLHNM | inactive
SLKSPLRCFLILHSPALCLG | inactive
SLLCKFIVRNPNSSLIRSAS | inactive
SLLSRFIEEGASCRCTRDG | inactive
SLLVLETDGCFPVAPLAGDS | -0.926 ± 1.1
SLLYYFWTNPGAFSKYIYSM | inactive
SLMIG | inactive
SLNER | inactive
SLPNA | inactive
SLRNRLVVTSVDYRMHLRRG | inactive

Substance | amyloid nucleation score
SLSYSSLCSALMWVHVKSYD | inactive
SLSYTRCCQNTILIKRYGLE | inactive
SLVWTDRNYVSTNGSSCVWL | inactive
SLVYMWPDGTFLRWMGAWH | inactive
SLWMQGWYSSGLLPFGSIAE | inactive
SLWRLMSETVGLKKMQ | inactive
SLYTARVFGVNYHFVTSKFF | inactive
SMADPRFQESYEDRETYSIS | inactive
SMCPLYFINHAIAVDAMKFF | inactive
SMCPPLQRG | inactive
SMDNFL | inactive
SMGKCRFRCVNIIFYWRWIH | 1.25 ± 0.14
SMGLFDTQFVGELHVASRLF | inactive
SMRKRKRIKLDI | inactive
SMRLEFGLSMCVWVVDPSN | 0.706 ± 0.15
SMSPFRKFLTFWNMGPKRTL | -1.06 ± 2.4
SMSPTKLYSSIMVNSWEWLF | inactive
SMSSELCLGNRHYG | inactive
SMTWSRIAFEIMWNSVCRLI | inactive
SNARKGLMNVLRRYWLCDWT | -0.412 ± 0.88
SNDIRF | inactive
SNDVCVC | inactive
SNLCGFCRSHVIKVMLLLSA | inactive

Substance | amyloid nucleation score
SNLVPMQCVIL | inactive
SNPLYGSDMQVHYF | 1.16 ± 0.14
SNPVFFVMLAPLWVAQLSNP | inactive
SNQTWMVNET | inactive
SNRYKVCWCCPFLFRGVTRL | 1.94 ± 0.093
SNSFTAFVYTYPWDHLVGVL | -0.195 ± 0.47
SNSFVDFRHSDWF | inactive
SPFCYRR | inactive
SPFLKTTVAGLGSPRELSIR | inactive
SPFPLEPFS | inactive
SPGLMRYRRTPLAKSLPWMK | inactive
SPGPFR | inactive
SPKFVRWGRQVVSSVRA | inactive
SPLSRTFTPTYAGDMLLNSS | inactive
SPRTNNPTMHRSGW | inactive
SPSGSIVAVTPLIWR | inactive
SQFDEMLFSKMEPWQVLFTM | inactive
SQFLLYTVQQFRWTACHVAF | inactive
SQGLYVGPVAPSGTVRRVWM | inactive
SQHHPSGSSMWGKWIMLDPR | inactive
SQMSPSNDMWLALNV | inactive
SQRYLNLVPKYLSRLVMCGI | inactive
SQVVTVRCPDSSLCEIFSWG | inactive
